Test [1] addresses T1, miR2-FL-WT-T7 (mouse iRhom2 full length wild type C-terminally tagged with 3 consecutive copies of the T7 … (mouse, UniProt Q80WQ6 1-827)).
T1 construct: also called mouse iRhom2 variant expressed by MEF-DKO-miR2-FL-WT-T7 cells
T1 sequence: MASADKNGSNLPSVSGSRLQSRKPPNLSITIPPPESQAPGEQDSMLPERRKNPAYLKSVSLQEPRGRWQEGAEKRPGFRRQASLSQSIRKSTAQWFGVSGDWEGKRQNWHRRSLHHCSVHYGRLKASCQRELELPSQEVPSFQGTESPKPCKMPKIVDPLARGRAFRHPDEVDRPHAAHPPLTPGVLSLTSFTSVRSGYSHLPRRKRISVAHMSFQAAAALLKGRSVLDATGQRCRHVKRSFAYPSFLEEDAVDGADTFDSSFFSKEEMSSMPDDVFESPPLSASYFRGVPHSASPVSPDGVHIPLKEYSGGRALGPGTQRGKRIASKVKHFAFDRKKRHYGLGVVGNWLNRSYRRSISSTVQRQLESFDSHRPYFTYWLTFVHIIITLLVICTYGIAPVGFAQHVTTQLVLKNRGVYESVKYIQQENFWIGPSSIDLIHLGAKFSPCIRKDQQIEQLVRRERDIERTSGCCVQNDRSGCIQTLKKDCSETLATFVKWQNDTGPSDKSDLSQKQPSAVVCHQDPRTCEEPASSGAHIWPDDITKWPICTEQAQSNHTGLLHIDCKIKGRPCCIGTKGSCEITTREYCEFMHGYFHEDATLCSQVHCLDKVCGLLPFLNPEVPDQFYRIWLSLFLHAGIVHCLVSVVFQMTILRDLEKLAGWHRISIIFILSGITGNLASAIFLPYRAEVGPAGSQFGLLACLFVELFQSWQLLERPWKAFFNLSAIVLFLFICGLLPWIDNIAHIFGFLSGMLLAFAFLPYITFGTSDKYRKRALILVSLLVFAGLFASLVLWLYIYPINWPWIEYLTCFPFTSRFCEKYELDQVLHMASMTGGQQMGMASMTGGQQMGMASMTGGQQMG
Nature of the test: FACS, MEF-DKO-miR2-FL-WT-T7 cells. As for the experimental part:
In brief, immortalized MEF-DKO-EV control cells, MEF-DKO-hiR2-FL-WT-T7 cells and MEF-DKO-miR2-FL-WT-T7 cells were harvested with 10 mM EDTA in PBS, washed and resuspended in FACS buffer (PBS, 3% FBS, 0.05% sodium azide), and seeded in Nunc U-bottom 96-well plates (Thermo Fisher Scientific, USA) at approximately 3×10⁵ cells per well. To pellet cells and remove supernatants, the plates were centrifuged at 1,500 rpm and 4° C. for 3 minutes. For primary staining, cells were resuspended in 100 μl per well of either FACS buffer alone (controls), mouse monoclonal anti-T7 IgG (Merck Millipore, USA) at 3 μg/ml FACS buffer or the purified antibodies 3, 5, 16, 22, 34, 42, 43, 44, 48, and 50 of the present disclosure also at 3 μg/ml FACS buffer and incubated on ice for 1 hour. Afterwards, plates were centrifuged at 1,500 rpm and 4° C. for 3 minutes and washed twice with 200 μl per well of FACS buffer. For secondary staining, cells were spun down and resuspended in 100 μl per well of PE-conjugated goat anti-mouse IgG F(ab′)2 detection fragment (Dianova, Germany) diluted 1:100 in FACS buffer. Protected from light, the cell suspensions were incubated on ice for 1 hour. […] Finally, cells were resuspended in 150 μl per well of FACS buffer and analyzed using a BD Accuri™ C6 Plus flow cytometer (Becton Dickinson, Germany).
For orientation: In flow cytometry, cells or beads pass a laser one at a time.

The target in test [2] is T2, hiR2-FL-K536A-T7 (human iRhom2 full length K536A, 3 x T7 tag) (human, UniProt Q6PJF5 1-856).
T2 sequence: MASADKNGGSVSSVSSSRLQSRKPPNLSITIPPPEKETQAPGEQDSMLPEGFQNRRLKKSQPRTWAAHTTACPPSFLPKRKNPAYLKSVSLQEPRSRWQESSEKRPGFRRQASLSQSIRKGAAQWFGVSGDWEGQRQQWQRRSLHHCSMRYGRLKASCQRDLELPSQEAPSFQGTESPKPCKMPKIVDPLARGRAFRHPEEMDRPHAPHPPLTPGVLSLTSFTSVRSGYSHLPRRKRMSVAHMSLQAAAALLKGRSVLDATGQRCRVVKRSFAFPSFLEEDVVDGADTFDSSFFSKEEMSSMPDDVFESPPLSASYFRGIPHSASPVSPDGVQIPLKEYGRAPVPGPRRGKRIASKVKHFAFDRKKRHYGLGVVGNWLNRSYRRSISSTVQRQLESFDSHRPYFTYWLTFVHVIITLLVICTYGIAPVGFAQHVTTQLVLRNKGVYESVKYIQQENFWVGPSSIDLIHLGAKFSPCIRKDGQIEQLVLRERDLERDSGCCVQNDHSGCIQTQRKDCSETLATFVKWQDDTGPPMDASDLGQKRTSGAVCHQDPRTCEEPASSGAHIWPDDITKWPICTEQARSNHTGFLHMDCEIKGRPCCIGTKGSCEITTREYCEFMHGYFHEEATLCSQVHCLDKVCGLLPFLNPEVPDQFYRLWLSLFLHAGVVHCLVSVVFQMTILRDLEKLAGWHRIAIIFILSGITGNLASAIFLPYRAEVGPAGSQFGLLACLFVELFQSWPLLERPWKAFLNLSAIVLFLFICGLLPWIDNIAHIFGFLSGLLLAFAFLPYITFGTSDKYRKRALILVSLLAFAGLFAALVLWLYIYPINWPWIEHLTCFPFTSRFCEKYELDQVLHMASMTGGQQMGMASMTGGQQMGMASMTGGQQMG
Nature of the test: FACS on MEF-DKO-hiR2-FL-K536A-T7 cells, PE anti-mouse IgG F(ab')2 detection.

B1: antibody 48 (antibody, V domains shown)
VH: QVQLQQSGTELVRPGTSVKVSCKASGYAFTNYLIEWVKQRPGQGLEWIGVINPGSGFTKYNEKFKGKATLTADKSSSTVYMHLSSLTSEDSAVYFCARGLYRAMDYWGQGTSVTVSS
VL: DIQMTQSPASQSASLGESVTITCLASQTIATWLAWYQQKPGKSPQLLIYGATTLADGVPSRFSGGGSGTKFSFKISSLQAEDFVSYYCQQLYSTPYTFGGGTKLEIK
notes: Mouse IgG, kappa light chain; also called clone #48; purified antibody 48
On to B1, for which, in test [1], the binding result was “no binding (tested: 3 µg/ml)”.

B2: antibody 5 (antibody, V domains shown)
VH: QVTLKESGPGILQPSQTLSLTCSFSGFSLSTFGMGVGWIRQPSGKGLEWLAHIWWDDEKYYNSALKSRLTISKATSKNQAFLKIANVDTADTATYYCARISNYGSNYWYFNVWGTGTTVTVSS
VL: QVVLTQSPALMSASPGEKVTMTCSAGSSVSCMYWYQQKPGSSPRVLIYDTSNLASGVPARFTGSGSGTSYSLTISRMEAEDAASYYCQQWNSYPLTFGAGTKLELK
notes: Mouse IgG, kappa light chain; also called clone #5; purified antibody 5
As for B2, the binding result in test [2] was “no binding (tested: 3 µg/ml)”.

Source of the values: US20240174744A1 (SCIRHOM, published 2024).
